In patent US20120172293A1 (Takeda / Millennium, published 2012):
Starred links: 1 amine or outer side, 2 acyl side, 3 side chain; linkers in the order of their positions; H or OH if unused. Non-standard residues stand in square brackets, D forms with d. No end group written: not given here. *: point of attachment. 2‑hydroxyethylcarbamoyl = O=C(NCCO)*; tBuAla = CC(C)(C)C[C@H](N)C(=O)O; Cha = N[C@@H](CC1CCCCC1)C(=O)O; Suc = O=C(CCC(=O)[*:2])[*:1]; 4Amb = NCc1ccc(C(=O)O)cc1; Aib = CC(C)(N)C(=O)O; Carbamoyl = NC(=O)*

T1: human Y2 receptor (human, UniProt P49146 1-381)
T1 sequence (looked up): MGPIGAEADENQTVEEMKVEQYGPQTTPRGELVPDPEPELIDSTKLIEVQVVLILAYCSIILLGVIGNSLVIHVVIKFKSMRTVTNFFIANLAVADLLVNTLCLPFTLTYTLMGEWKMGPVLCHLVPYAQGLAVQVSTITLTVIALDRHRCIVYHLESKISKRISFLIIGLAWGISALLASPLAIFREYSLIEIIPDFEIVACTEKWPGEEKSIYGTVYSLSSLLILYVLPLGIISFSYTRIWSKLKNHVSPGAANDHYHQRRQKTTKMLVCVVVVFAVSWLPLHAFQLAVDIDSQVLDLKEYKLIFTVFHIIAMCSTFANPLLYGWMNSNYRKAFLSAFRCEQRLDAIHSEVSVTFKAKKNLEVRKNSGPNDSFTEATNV


Tests used:
human Y2 receptor [1] = molecular target: T1, human Y2 receptor; experiment: cell-based or functional assay
human Y2 receptor [2] = molecular target: T1, human Y2 receptor; experiment: RBA: [125I]-PYY displacement, hY2R/CHO membranes
Protocol: After incubation at room temperature for 60 minutes, the mixture was filtered through the cell harvester FilterMate (PerkinElmer) using UniFilter-96 GF/C treated with polyethylenimine (PEI) solution (20 mM Tris, 0.3% PEI, pH 7.4), and the filter was washed 3 times with a filtering buffer (50 mM Tris, 5 mM MgCl₂, 150 mM NaCl, 0.03% NaN₃, 0.05% CHAPS, pH 7.4). Thereafter, UniFilter-96 GF/C was dried in a mechanical drier for 1 hour, 15 μl of the liquid scintillator MicroScint O (PerkinElmer) was added to each well, and a measurement was taken using TopCount (PerkinElmer). The data obtained were analyzed using Prism to calculate the IC₅₀ value.

Binder | GBA EC50 Ratio (vs PYY(3-36)), [35S]GTPγS (human Y2 receptor [1]) [ratio] | IC50 Ratio (vs PYY(3-36)) (human Y2 receptor [2]) [ratio]
[4Amb][dR]AYINLITRQRY-NH2 (N-terminus assumed; SMILES CC[C@H](C)[C@H](NC(=O)[C@H](Cc1ccc(O)cc1)NC(=O)[C@H](C)NC(=O)[C@@H](CCCNC(=N)N)NC(=O)c1ccc(CN)cc1)C(=O)N[C@@H](CC(N)=O)C(=O)N[C@@H](CC(C)C)C(=O)N[C@H](C(=O)N[C@H](C(=O)N[C@@H](CCCNC(=N)N)C(=O)N[C@@H](CCC(N)=O)C(=O)N[C@@H](CCCNC(=N)N)C(=O)N[C@@H](Cc1ccc(O)cc1)C(N)=O)[C@@H](C)O)[C@@H](C)CC, also called compound No. 9) [4-Aminomethylbenzoyl-[D-Arg25, Ala26, Ile28,31]-PYY(25-36)] | 23 | 92
Carbamoyl-S[dP]RH[Cha][Cha]NL[Aib]TRQR[Cha]-NH2 (SMILES CC(C)C[C@H](NC(=O)[C@H](CC(N)=O)NC(=O)[C@H](CC1CCCCC1)NC(=O)[C@H](CC1CCCCC1)NC(=O)[C@H](Cc1c[nH]cn1)NC(=O)[C@H](CCCNC(=N)N)NC(=O)[C@H]1CCCN1C(=O)[C@H](CO)NC(N)=O)C(=O)NC(C)(C)C(=O)N[C@H](C(=O)N[C@@H](CCCNC(=N)N)C(=O)N[C@@H](CCC(N)=O)C(=O)N[C@@H](CCCNC(=N)N)C(=O)N[C@@H](CC1CCCCC1)C(N)=O)[C@@H](C)O, also called compound No. 130; Ureido-[D-Pro24,Cha27,28,36,Aib31]-PYY(23-36)) [Carbamoyl-[D-Pro24, Cha27,28,36, Aib31]-PYY(23-36)] | 1 | 1.8
Suc-S[dP]RH[Cha][Cha]NK[Aib]TRQR[Cha]-NH2 (SMILES C[C@@H](O)[C@H](NC(=O)C(C)(C)NC(=O)[C@H](CCCCN)NC(=O)[C@H](CC(N)=O)NC(=O)[C@H](CC1CCCCC1)NC(=O)[C@H](CC1CCCCC1)NC(=O)[C@H](Cc1c[nH]cn1)NC(=O)[C@H](CCCNC(=N)N)NC(=O)[C@H]1CCCN1C(=O)[C@H](CO)NC(=O)CCC(=O)O)C(=O)N[C@@H](CCCNC(=N)N)C(=O)N[C@@H](CCC(N)=O)C(=O)N[C@@H](CCCNC(=N)N)C(=O)N[C@@H](CC1CCCCC1)C(N)=O, also called compound No. 167) [3-Carboxypropionyl-[D-Pro24, Cha27,28,36, Lys30, Aib31]-PYY(23-36)] | 1.1 | 0.64
{2‑hydroxyethylcarbamoyl}-E[dP]RH[Cha][Cha]NK[Aib]TRQR[Cha]-NH2 (SMILES C[C@@H](O)[C@H](NC(=O)C(C)(C)NC(=O)[C@H](CCCCN)NC(=O)[C@H](CC(N)=O)NC(=O)[C@H](CC1CCCCC1)NC(=O)[C@H](CC1CCCCC1)NC(=O)[C@H](Cc1c[nH]cn1)NC(=O)[C@H](CCCNC(=N)N)NC(=O)[C@H]1CCCN1C(=O)[C@H](CCC(=O)O)NC(=O)NCCO)C(=O)N[C@@H](CCCNC(=N)N)C(=O)N[C@@H](CCC(N)=O)C(=O)N[C@@H](CCCNC(=N)N)C(=O)N[C@@H](CC1CCCCC1)C(N)=O, also called compound No. 192) [2-Hydroxyethylcarbamoyl-[Glu23, D-Pro24, Cha27,28,36, Lys30, Aib31]-PYY(23-36)] | 1.2 | 1.3
{2‑hydroxyethylcarbamoyl}-S[dP]RH[Cha][tBuAla]NK[Aib]TRQR[Cha]-NH2 (SMILES C[C@@H](O)[C@H](NC(=O)C(C)(C)NC(=O)[C@H](CCCCN)NC(=O)[C@H](CC(N)=O)NC(=O)[C@H](CC(C)(C)C)NC(=O)[C@H](CC1CCCCC1)NC(=O)[C@H](Cc1c[nH]cn1)NC(=O)[C@H](CCCNC(=N)N)NC(=O)[C@H]1CCCN1C(=O)[C@H](CO)NC(=O)NCCO)C(=O)N[C@@H](CCCNC(=N)N)C(=O)N[C@@H](CCC(N)=O)C(=O)N[C@@H](CCCNC(=N)N)C(=O)N[C@@H](CC1CCCCC1)C(N)=O, also called compound No. 188) [2-Hydroxyethylcarbamoyl-[D-Pro24, Cha27,36, Leu(Me)28, Lys30, Aib31]-PYY(23-36)] | 0.71 | 0.6
